Data from PMC11373624, “Development and preclinical characterization of a novel radiotheranostic EphA2-targeting bicyclic peptide” (Theranostics, 2024).
Numbered stars: 1 amine (or outer) side, 2 acyl side, 3 side chain; on linkers, the order of the positions; unused ones are H or OH. Bridge positions count the residues as written; N and C are the ends. Square brackets hold non-standard residues; d marks the D form. Peptide text beside a SMILES is read from it. * marks the point of attachment. DOTA = O=C(O)CN1CCN(CC(=O)O)CCN(CC(=O)*)CCN(CC(=O)O)CC1; TATA = O=C(CC[*:1])N1CN(C(=O)CC[*:2])CN(C(=O)CC[*:3])C1; Hyp = O=C(O)[C@@H]1C[C@@H](O)CN1; hArg = N=C(N)NCCCC[C@H](N)C(=O)O; Cba = N[C@@H](CC1CCC1)C(=O)O; βAla = NCCC(=O)O; Sar = CNCC(=O)O

Tests used:
[1] = in vivo; settings: female, BALC/c nu/nu, mouse, iv, 150 pmol, total radioactivity
Protocol: (§1) PET/MR imaging was performed in 8-week-old female BALC/c nu/nu mice (Charles River, Germany) which were subcutaneously inoculated on the right upper flank with 10^6 cells (1:1 in PBS:Matrigel). Tumor growth was monitored, and once size was approx. 300-500 mm^3, 150 pmol of [^68Ga]Ga-BCY18469 (4 - 9 MBq) was injected intravenously via tail vein with subsequent imaging performed under isoflurane anesthesia. For the PET imaging experiments with blocking, an excess (15 nmol) of non-radiolabeled BCY18469 was injected 5 mins before the injection of 300 pmol (4 MBq) of the ^68Ga-labeled compound. PET imaging consisted of a dynamic scan from 0 to 60 min p.i. (30 frames), followed by non-triggered localizer and a 3-step whole body T1-weighed 3D MR-scan (PET/MR 3T, Bruker BioSpin, Germany). Additionally, a 2 h p.i. static image (10 min scan) was recorded, followed by the same MR scan protocol. Data was obtained via ParaVision 3.0 and reconstructed using a Maximum-Likelihood Expectation-Maximization (MLEM) algorithm at 0.5 mm for 18 iterations. Reconstructed data was analyzed with PMOD 3.7.

[2] = system: HT1080 cells; experiment: Cell surface binding and internalization assay; format: cell-based, human; settings: listed as 68Ga-BCY18469
Protocol: To assess internalization and specificity, HT1080 cells (10^5 cells/well) were seeded in a 24-well plate coated with poly-L-lysine one day before the experiment. […] To determine specific uptake, 'cold' (non-radiolabeled) BCY18469 was added to half of the wells at an excess concentration of 10 µM/well or, alternatively, the cells were kept at 4 °C during the experiment. Following the incubation, the cells were thoroughly rinsed with cold PBS (3 x 1 mL). Subsequently, surface bound radioactivity was removed by washing with 50 mM glycine (pH 2.8, 2 x 500 µL). Finally, the internalized fraction was determined by lysing the cells with 0.5 M NaOH (500 µL). All fractions were collected and measured using a gamma counter (Perkin Elmer Wizard2, Germany). All counts were standardized to the initial activity, and specific surface binding as well as specific internalization were calculated by subtracting the non-specific binding values obtained from the wells treated with an excess of 'cold' compound. Results were calculated and expressed as %AA/10^5 cells (% applied activity/10^5 cells).

[3] = system: MCF-7 tumor xenograft; settings: mouse, in vivo
Protocol: as §1

[4] = in vitro; format: in vitro ADME; settings: human, plasma, plasma protein binding
Protocol: To determine binding to plasma proteins, BCY18469 was labeled with ^68Ga (apparent molar activity 1 GBq/µmol). Thereafter, 10 µL of the labeling mixture were added to 100 µL of mouse or human plasma (mouse: BioIVT, United Kingdom, human: Sigma Aldrich, Germany). The mixture was left for 15 min at room temperature. Afterwards, the plasma was loaded into an ultrafiltration device (Amicon Ultra 0.5ml - 30 kDa, Merck, Germany) and centrifuged at 14,000 rpm for 30 min at r.t. The filtrate and the membrane were measured in a gamma counter (Wizard2, Perkin Elmer, Germany). The amount of plasma-bound compound was calculated based on the counts in the […] relative to the total counts (filtrate + membrane).

[5] = in vitro; format: in vitro ADME; settings: plasma
Protocol: Determination of stability in plasma was performed with the ^177Lu-labeled peptide. 10 µL of the labeled compound were added into human or mouse plasma (mouse: BioIVT, United Kingdom, human: Sigma Aldrich, Germany) and incubated at 37 °C. Aliquots were taken at different time points during incubation (1, 6, 24, 48 and 72 h) to which acetonitrile (30 μL) was added in order to precipitate plasma proteins. After centrifugation at 13,000 rpm for 5 min at r.t. the supernatant was taken and analyzed via HPLC.

[6] = 4°C, block with 10 µM non-labeled compound

CC(C)C[C@@H]1NC(=O)[C@@H]2CSCCC(=O)N3CN(CN(C3)C(=O)CCSC[C@H](NC(=O)[C@H](CC(=O)O)NC(=O)[C@H](CCCCNC(=N)N)NC(=O)[C@H](C)NC(=O)CN(C)C(=O)CN(C)C(=O)CN(C)C(=O)CN(C)C(=O)CN(C)C(=O)CN(C)C(=O)CN(C)C(=O)CN(C)C(=O)CN(C)C(=O)CN(C)C(=O)CCNC(=O)CN3CCN(CC(=O)O)CCN(CC(=O)O)CCN(CC(=O)O)CC3)C(=O)N3C[C@H](O)C[C@H]3C(=O)N[C@@H](CC3CCC3)C(=O)N[C@@H](C(C)C)C(=O)N[C@@H](CC(N)=O)C(=O)N3CCC[C@H]3C(=O)N[C@@H](CC(C)C)C(=O)N2)C(=O)CCSC[C@@H](C(N)=O)NC(=O)[C@H](CCCCNC(=N)N)NC(=O)[C@H](Cc2c[nH]c3ccccc23)NC(=O)[C@@H](CC(=O)O)NC(=O)[C@@H]2CCCN2C(=O)[C@H](Cc2c[nH]cn2)NC1=O [[68Ga]Ga-BCY18469, metal not drawn] ({DOTA-βAla}-[Sar][Sar][Sar][Sar][Sar][Sar][Sar][Sar][Sar][Sar]A[hArg]DC[Hyp][Cba]VNPLCLHP[dD]W[hArg]C-NH2; linker 14-21-28 via TATA)
SUV ([1]; Bladder uptake): 0.41 SUV | SUV ([1]; Kidneys uptake): 3.15 SUV | SUV ([1]; Liver uptake): 1.13 SUV | SUV at 1 h ([1]; Tumor SUVbw): 1.7 SUV | SUV at 2 h ([1]; Tumor SUVbw): 1.2 SUV | SUV ([1]; Tumor uptake): 0.67 SUV | Cell Surface B 4°C [2, 6]: 0.03 ± 0.01 %AA/10^5 cells | Internalization B 4°C [2, 6]: 0.01 ± 0.00 %AA/10^5 cells | Cell Surface 4°C ([2]; 4°C): 0.47 ± 0.01 %AA/10^5 cells | Internalization 4°C ([2]; 4°C): 0.05 ± 0.01 %AA/10^5 cells | Cell Surface ([2]; 37°C, 45 min, 30 nM): 0.53 ± 0.03 %AA/10^5 cells | Internalization ([2]; 37°C, 45 min, 30 nM): 0.18 ± 0.05 %AA/10^5 cells | Internalization B ([2]; 37°C, block with 10 µM non-labeled compound): 0.06 ± 0.00 %AA/10^5 cells | uptake in the tumor [3]: no uptake | fraction unbound at 15 min [4]: ~0.5 | remaining at 72 h ([5]; human): 94% | remaining at 72 h ([5]; mouse): 40%
